Results published in the supplement of paper PMC10065799, “High-throughput profiling of sequence recognition by tyrosine kinases and SH2 domains using bacterial peptide display” (eLife, 2023).

Tests used:
Fes = Fes (UniProt P07332); assay: phosphorylation enrichment, bacterial display (enrichment ratio); higher = better substrate or ligand; peptides without Tyr show the background
EPHB2 = EPHB2 (UniProt P29323); assay: as above
c-Src = assay: as above
Hck = Hck (UniProt P08631); assay: as above
AncSZ = assay: as above
FGFR1 = FGFR1 (UniProt P11362); assay: as above
EPHB1 = EPHB1 (UniProt P54762); assay: as above
MERTK = MERTK (UniProt Q12866); assay: as above
Jak2 = Jak2 (UniProt O60674); assay: as above
FGFR3 = FGFR3 (UniProt P22607); assay: as above
Fyn = Fyn (UniProt P06241); assay: as above
c-Abl (mouse) = assay: as above
Fer (mouse) = assay: as above
c-Src SH2 = assay: SH2 binding enrichment of the phosphorylated peptide, bacterial display (enrichment ratio); higher = better substrate or ligand; peptides without Tyr show the background
Grb2 SH2 = Grb2 SH2 (UniProt P62993); assay: as above
SHP2-C SH2 = assay: as above
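Throughout, for SH2 binding enrichment of the phosphorylated peptide, bacterial display: peptide library displayed on the E. coli surface as eCPX fusions, selected cells deep-sequenced, score is each peptide's frequency after selection divided by its frequency in the input.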
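Throughout, for phosphorylation enrichment, bacterial display: 11-residue human phosphosite peptides and single-mutation variants displayed on the E. coli surface, counted by deep sequencing, each peptide's frequency after selection divided by its frequency in the unselected input library; frequency after pTyr selection over input frequency; kinase dosed for 20-30% of maximal phosphorylation in three min.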

Sequence of Fyn (P06241 whole entry, looked up): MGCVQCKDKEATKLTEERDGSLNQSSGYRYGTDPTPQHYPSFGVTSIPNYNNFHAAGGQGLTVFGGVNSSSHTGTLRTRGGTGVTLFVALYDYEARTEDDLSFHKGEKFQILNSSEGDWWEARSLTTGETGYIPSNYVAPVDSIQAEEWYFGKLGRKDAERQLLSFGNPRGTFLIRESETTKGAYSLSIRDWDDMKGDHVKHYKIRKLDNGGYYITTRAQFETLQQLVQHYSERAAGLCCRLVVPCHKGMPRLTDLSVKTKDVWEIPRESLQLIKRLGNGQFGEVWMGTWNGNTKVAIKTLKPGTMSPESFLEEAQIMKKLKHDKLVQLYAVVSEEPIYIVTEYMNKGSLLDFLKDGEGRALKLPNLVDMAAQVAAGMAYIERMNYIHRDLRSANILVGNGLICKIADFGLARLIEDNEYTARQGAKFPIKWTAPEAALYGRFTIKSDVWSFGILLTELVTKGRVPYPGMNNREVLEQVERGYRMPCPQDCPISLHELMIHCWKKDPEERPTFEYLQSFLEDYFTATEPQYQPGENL
Sequence of Jak2 (O60674 whole entry, looked up): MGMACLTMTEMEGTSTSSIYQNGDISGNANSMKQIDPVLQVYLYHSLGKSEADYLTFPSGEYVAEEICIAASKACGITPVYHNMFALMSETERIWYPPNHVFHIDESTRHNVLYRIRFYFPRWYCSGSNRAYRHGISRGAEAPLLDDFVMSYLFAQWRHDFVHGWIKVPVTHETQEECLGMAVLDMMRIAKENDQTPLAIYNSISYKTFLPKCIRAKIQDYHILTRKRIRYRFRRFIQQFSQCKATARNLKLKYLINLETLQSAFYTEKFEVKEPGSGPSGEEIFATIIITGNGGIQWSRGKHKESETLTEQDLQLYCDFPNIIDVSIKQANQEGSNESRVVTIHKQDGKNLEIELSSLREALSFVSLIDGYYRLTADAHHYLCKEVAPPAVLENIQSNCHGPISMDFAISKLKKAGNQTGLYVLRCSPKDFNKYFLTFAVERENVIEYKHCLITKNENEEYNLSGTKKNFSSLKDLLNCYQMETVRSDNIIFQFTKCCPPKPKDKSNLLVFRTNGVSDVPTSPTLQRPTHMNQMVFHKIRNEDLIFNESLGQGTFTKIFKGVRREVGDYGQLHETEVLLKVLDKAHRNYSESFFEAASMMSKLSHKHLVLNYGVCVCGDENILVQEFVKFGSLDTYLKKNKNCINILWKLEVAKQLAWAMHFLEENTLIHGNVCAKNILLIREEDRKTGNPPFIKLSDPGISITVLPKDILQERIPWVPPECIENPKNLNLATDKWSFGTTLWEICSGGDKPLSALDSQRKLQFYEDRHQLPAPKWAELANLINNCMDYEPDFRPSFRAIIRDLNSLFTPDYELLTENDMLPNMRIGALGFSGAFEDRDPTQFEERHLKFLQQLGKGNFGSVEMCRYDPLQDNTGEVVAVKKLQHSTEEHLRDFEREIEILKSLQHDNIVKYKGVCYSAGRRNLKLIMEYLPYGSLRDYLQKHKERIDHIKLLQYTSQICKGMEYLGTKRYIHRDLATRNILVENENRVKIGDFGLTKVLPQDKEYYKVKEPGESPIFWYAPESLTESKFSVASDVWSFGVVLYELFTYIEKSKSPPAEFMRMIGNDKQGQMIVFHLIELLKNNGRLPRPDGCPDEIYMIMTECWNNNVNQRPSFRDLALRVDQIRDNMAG
Sequence of EPHB2 (P29323 whole entry, looked up): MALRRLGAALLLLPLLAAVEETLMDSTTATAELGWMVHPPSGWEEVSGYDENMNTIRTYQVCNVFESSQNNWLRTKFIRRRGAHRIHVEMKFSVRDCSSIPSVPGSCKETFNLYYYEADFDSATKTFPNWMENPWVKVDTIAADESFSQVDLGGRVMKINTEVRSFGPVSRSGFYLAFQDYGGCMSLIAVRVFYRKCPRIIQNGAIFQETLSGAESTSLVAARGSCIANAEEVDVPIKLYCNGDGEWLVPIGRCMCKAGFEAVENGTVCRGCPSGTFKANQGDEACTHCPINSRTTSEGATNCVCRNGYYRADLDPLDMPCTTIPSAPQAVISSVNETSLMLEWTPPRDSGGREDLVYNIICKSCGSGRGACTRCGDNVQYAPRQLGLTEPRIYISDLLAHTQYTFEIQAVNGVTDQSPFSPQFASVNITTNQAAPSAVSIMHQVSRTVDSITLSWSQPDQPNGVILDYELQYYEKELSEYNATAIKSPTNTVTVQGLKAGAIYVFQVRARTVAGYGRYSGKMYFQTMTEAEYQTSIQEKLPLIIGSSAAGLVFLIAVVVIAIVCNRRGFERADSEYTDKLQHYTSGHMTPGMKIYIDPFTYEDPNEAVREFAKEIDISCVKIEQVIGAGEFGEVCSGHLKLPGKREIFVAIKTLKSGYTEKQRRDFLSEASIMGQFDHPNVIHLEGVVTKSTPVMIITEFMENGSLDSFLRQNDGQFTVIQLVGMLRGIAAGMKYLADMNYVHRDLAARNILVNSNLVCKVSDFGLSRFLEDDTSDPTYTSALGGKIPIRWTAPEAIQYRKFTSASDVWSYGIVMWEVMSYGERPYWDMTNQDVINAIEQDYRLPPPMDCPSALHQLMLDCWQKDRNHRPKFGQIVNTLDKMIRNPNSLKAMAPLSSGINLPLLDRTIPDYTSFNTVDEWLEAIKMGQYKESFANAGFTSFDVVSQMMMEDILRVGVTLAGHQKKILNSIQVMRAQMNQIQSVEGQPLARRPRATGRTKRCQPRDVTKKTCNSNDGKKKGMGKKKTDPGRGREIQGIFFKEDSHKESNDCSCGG
Sequence of FGFR1 (P11362 whole entry, looked up): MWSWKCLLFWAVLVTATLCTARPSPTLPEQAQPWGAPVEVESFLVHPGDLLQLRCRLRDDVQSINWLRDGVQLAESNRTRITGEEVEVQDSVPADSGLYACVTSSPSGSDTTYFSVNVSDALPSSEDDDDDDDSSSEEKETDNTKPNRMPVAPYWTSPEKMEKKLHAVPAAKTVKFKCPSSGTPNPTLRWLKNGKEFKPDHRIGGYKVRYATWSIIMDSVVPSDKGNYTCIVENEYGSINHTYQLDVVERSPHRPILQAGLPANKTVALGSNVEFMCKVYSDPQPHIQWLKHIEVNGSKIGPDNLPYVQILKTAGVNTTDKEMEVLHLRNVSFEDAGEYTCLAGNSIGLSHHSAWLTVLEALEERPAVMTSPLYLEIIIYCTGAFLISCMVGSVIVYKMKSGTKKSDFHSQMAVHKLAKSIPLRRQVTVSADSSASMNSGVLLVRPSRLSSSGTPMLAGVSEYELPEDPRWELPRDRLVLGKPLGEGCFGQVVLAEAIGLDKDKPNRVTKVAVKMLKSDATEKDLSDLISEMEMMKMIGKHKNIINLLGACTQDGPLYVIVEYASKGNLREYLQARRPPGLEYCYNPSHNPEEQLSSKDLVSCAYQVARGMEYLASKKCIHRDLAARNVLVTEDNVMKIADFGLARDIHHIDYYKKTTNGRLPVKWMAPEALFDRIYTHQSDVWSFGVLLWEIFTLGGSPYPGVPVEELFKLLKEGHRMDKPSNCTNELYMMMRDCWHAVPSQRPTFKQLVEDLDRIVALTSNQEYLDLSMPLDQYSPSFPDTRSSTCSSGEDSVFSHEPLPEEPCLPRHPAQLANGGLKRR
Sequence of Hck (P08631 whole entry, looked up): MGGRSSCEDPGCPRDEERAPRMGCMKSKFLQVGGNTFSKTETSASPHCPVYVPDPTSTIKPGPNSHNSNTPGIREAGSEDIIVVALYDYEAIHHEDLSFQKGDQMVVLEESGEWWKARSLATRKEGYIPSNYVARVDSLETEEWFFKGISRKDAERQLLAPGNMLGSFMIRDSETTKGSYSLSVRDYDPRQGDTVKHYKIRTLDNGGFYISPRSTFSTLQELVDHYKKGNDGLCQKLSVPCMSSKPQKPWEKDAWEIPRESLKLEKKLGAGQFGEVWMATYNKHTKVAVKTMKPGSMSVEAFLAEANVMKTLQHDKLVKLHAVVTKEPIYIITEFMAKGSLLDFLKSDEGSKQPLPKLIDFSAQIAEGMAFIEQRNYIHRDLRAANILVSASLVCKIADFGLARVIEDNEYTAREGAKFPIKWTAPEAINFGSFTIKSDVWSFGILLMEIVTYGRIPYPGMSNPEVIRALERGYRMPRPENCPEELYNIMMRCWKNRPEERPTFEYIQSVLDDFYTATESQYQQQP
Sequence of MERTK (Q12866 whole entry, looked up): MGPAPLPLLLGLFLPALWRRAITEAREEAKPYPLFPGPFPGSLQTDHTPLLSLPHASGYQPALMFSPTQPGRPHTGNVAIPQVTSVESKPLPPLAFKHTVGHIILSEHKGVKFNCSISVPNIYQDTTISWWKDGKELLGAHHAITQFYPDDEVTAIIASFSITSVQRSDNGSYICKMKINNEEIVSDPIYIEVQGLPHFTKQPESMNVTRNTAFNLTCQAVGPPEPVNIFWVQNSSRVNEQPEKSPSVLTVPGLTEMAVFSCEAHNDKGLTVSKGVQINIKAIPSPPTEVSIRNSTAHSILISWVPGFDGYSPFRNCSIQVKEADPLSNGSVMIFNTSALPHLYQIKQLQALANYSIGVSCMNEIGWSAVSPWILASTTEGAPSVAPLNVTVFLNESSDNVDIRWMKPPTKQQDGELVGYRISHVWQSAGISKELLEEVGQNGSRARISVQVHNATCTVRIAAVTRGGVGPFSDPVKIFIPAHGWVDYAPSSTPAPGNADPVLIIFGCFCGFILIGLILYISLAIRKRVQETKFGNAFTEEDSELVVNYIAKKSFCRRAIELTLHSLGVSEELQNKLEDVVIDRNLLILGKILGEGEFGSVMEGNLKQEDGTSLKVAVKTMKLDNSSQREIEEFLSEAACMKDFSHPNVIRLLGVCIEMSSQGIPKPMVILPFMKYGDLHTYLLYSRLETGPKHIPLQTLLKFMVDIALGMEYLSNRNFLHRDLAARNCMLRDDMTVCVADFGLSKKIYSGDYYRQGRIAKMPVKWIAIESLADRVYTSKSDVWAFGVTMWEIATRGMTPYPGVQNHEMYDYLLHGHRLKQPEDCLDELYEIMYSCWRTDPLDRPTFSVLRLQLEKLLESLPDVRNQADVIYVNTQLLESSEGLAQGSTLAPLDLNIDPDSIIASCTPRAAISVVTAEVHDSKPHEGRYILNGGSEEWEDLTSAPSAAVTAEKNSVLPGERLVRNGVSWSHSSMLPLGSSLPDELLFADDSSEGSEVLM

| Sequence | phosphorylation enrichment (Fes) | phosphorylation enrichment (EPHB2) | phosphorylation enrichment (c-Src) | phosphorylation enrichment (Hck) | phosphorylation enrichment (AncSZ) | phosphorylation enrichment (FGFR1) | phosphorylation enrichment (EPHB1) | phosphorylation enrichment (MERTK) | phosphorylation enrichment (Jak2) | phosphorylation enrichment (FGFR3) | phosphorylation enrichment (Fyn) | phosphorylation enrichment (c-Abl (mouse)) | phosphorylation enrichment (Fer (mouse)) | SH2 binding enrichment (c-Src SH2) | SH2 binding enrichment (Grb2 SH2) | SH2 binding enrichment (SHP2-C SH2) |
| --- | --- | --- | --- | --- | --- | --- | --- | --- | --- | --- | --- | --- | --- | --- | --- | --- |
| YCRIMYDIFPF [INTS13_Y67] | 1.48 | 5.07 | 2.98 | 3.78 | 1.85 | 3.47 | 6.02 | 4.92 | 1.51 | 2.89 | 2.55 | 1.7 | 2.06 | 1.64 | 1.01 | 1.12 |
| QTENKYDSVSG [EIF2AK3_Y565] | 1.13 | 0.561 | 0.467 | 0.783 | 0.865 | 0.912 | 0.407 | 0.615 | 1.98 | 0.64 | 0.604 | 0.56 | 0.384 | 7.1 | 0.839 | 0.724 |
| KDHPDYKFQRR [SOX10_Y171_P175R_YF] | 0.631 | 0.387 | 0.446 | 0.382 | 0.696 | 0.338 | 0.338 | 0.389 | 0.615 | 0.423 | 0.321 | 0.667 | 0.612 | 0.736 | 1 | 0.701 |
| YPKVRYHWLVL [APTX_Y214_A212V] | 1.35 | 0.758 | 0.474 | 0.547 | 1 | 0.681 | 0.652 | 0.448 | 1.06 | 1.03 | 0.531 | 1.15 | 0.506 | 0.756 | 1.05 | 1.17 |
| TESNNYIYKTL [FAM83B_Y637] | 0.696 | 0.44 | 1.28 | 0.99 | 0.729 | 0.625 | 0.483 | 0.535 | 0.63 | 0.64 | 1.31 | 0.559 | 0.512 | 0.523 | 0.738 | 1.65 |
| IVFVICDEVVK [SLC25A1_Y297_Y297C] | 1.25 | 0.555 | 0.393 | 0.501 | 1.15 | 0.484 | 0.652 | 0.333 | 1.01 | 0.833 | 0.442 | 0.55 | 0.498 | 0.734 | 1.12 | 1.03 |
| NCFKFYMSDDI [ATRX_Y204_YF] | 1.23 | 0.53 | 0.447 | 0.512 | 1.2 | 0.565 | 0.605 | 0.394 | 1.17 | 0.745 | 0.386 | 0.95 | 0.521 | 0.689 | 0.973 | 0.721 |
| FLQTDYTSQVS [FRMPD1_Y846] | 0.805 | 0.44 | 0.428 | 0.417 | 1.03 | 0.442 | 0.37 | 0.386 | 0.732 | 0.538 | 0.404 | 0.565 | 0.451 | 0.579 | 0.791 | 0.873 |
| SARHHYESLQT [BIN1_Y157] | 0.564 | 0.374 | 0.447 | 0.446 | 0.532 | 0.445 | 0.431 | 0.455 | 0.479 | 0.396 | 0.36 | 0.636 | 0.499 | 34.4 | 0.854 | 0.952 |
| FENGEYIIRQG [PRKG1_Y247_YF] | 1.07 | 0.464 | 0.591 | 0.565 | 1.01 | 0.499 | 0.543 | 0.427 | 0.92 | 0.69 | 0.572 | 0.653 | 0.557 | 0.382 | 0.908 | 0.462 |
| EYFENYIEELK [PARP4_Y218] | 1.4 | 0.647 | 0.63 | 0.607 | 1.44 | 2.31 | 0.73 | 0.422 | 1.5 | 1.69 | 0.539 | 0.851 | 0.518 | 0.38 | 0.657 | 0.785 |
| MPLTEYLKRIK [CNGB3_Y200] | 0.616 | 0.365 | 0.325 | 0.365 | 0.621 | 0.381 | 0.266 | 0.379 | 0.613 | 0.462 | 0.34 | 0.525 | 0.345 | 0.489 | 1.01 | 0.75 |
| CTTIHFNYMCN [TP53_Y234_Y234F] | 0.74 | 0.501 | 0.519 | 0.427 | 0.68 | 0.534 | 0.488 | 0.397 | 0.628 | 0.553 | 0.432 | 0.458 | 0.572 | 1.72 | 1.83 | 2.05 |
| LLSVAYQNVVG [YWHAG_Y49_K50Q] | 1.25 | 1.07 | 0.443 | 0.632 | 1.23 | 1.34 | 1.19 | 0.519 | 1.22 | 1.08 | 0.757 | 0.832 | 0.83 | 2.53 | 21.1 | 2.77 |
| FKDYFYCWNTS [AICDA_Y146_F151S] | 1.44 | 2.58 | 0.885 | 0.599 | 2.62 | 11.2 | 5.4 | 2.14 | 3.67 | 9.31 | 0.618 | 0.973 | 1.03 | 0.375 | 0.73 | 0.542 |
| ADNSAYLMGLN [MYH7_Y386_K383N] | 0.932 | 0.566 | 0.587 | 0.603 | 0.865 | 0.512 | 0.629 | 0.473 | 1.11 | 0.61 | 0.514 | 0.738 | 0.497 | 0.556 | 0.993 | 0.723 |
| EQMLEYMGQLQ [CFAP45_Y289_E291G] | 1.01 | 0.493 | 0.505 | 0.507 | 0.913 | 0.447 | 0.436 | 0.448 | 0.873 | 0.595 | 0.542 | 0.762 | 0.427 | 0.42 | 0.794 | 0.553 |

| Sequence | phosphorylation enrichment (Fes) | phosphorylation enrichment (EPHB2) | phosphorylation enrichment (c-Src) | phosphorylation enrichment (Hck) | phosphorylation enrichment (AncSZ) | phosphorylation enrichment (FGFR1) | phosphorylation enrichment (EPHB1) | phosphorylation enrichment (MERTK) | phosphorylation enrichment (Jak2) | phosphorylation enrichment (FGFR3) | phosphorylation enrichment (Fyn) | phosphorylation enrichment (c-Abl (mouse)) | phosphorylation enrichment (Fer (mouse)) | SH2 binding enrichment (c-Src SH2) | SH2 binding enrichment (Grb2 SH2) | SH2 binding enrichment (SHP2-C SH2) |
| --- | --- | --- | --- | --- | --- | --- | --- | --- | --- | --- | --- | --- | --- | --- | --- | --- |
| AKKKMYSHKTK [AGXT_Y231_R233H] | 1.63 | 0.823 | 0.727 | 0.666 | 0.961 | 0.621 | 1.01 | 0.689 | 3.12 | 2.37 | 0.609 | 1.62 | 1.12 | 1.34 | 1.44 | 1.42 |
| FKGIVYSVSSD [DCX_Y70_A71S] | 1.11 | 0.668 | 0.722 | 0.547 | 1.09 | 0.548 | 0.535 | 0.488 | 0.959 | 0.666 | 0.666 | 0.887 | 0.399 | 0.456 | 0.718 | 0.695 |
| WRPFGYPRRRR [BCS1L_Y181] | 0.513 | 0.481 | 0.446 | 0.453 | 0.615 | 0.367 | 0.486 | 0.487 | 0.494 | 0.522 | 0.518 | 0.444 | 0.462 | 0.349 | 0.731 | 0.66 |
| AEPHTYEEPGR [EPHA8_Y616] | 0.824 | 0.476 | 0.439 | 0.485 | 1.08 | 0.506 | 0.511 | 0.501 | 0.749 | 0.581 | 0.489 | 0.675 | 0.433 | 6.34 | 0.882 | 0.862 |
| CKLCQYFLDHL [ATRX_Y1849_Y1847C_YF] | 1.18 | 0.612 | 0.766 | 0.456 | 1.28 | 0.689 | 0.571 | 0.49 | 1.16 | 0.661 | 0.449 | 0.89 | 0.442 | 1.1 | 1.46 | 1.18 |
| LITILYIGFLG [KCNQ1_Y267_T265I] | 2.55 | 1.18 | 1.24 | 1.08 | 2.28 | 0.72 | 0.835 | 1.43 | 2.73 | 1.31 | 0.809 | 2.13 | 0.895 | 0.845 | 0.879 | 1.26 |
| SKKSTYRALLD [GANC_Y43_Q44R] | 0.655 | 0.315 | 0.385 | 0.406 | 0.471 | 0.347 | 0.368 | 0.421 | 0.533 | 0.348 | 0.432 | 0.447 | 0.358 | 0.465 | 0.651 | 0.688 |
| PFAEPYADFGG [APBA1_Y187_S184A_YF] | 1.2 | 0.593 | 2.43 | 0.673 | 1.13 | 0.68 | 0.695 | 0.571 | 0.993 | 0.802 | 0.72 | 0.638 | 0.38 | 0.676 | 0.742 | 0.682 |
| GCRSKYVRLWG [KCNQ1_Y184_G186R] | 0.696 | 0.409 | 0.495 | 0.461 | 0.628 | 0.462 | 0.383 | 0.444 | 0.636 | 0.486 | 0.425 | 0.492 | 0.472 | 1.54 | 1.38 | 1.6 |
| LFCVHYFHRTF [SRD5A2_Y91] | 2.73 | 1.24 | 1.14 | 1.16 | 2.32 | 1.04 | 1.26 | 0.989 | 2.73 | 1.97 | 1.04 | 2.35 | 1.47 | 0.918 | 1.3 | 1.08 |
| CNSFRYGGGGG [NPPA_Y151] | 0.766 | 0.552 | 0.311 | 0.349 | 0.857 | 0.389 | 0.35 | 0.348 | 0.5 | 0.469 | 0.439 | 0.597 | 0.488 | 0.586 | 0.692 | 1.29 |
| ALRHFYKLNII [ETV6_Y402_YF] | 1.03 | 0.535 | 0.439 | 0.482 | 0.828 | 0.462 | 0.522 | 0.44 | 0.875 | 0.628 | 0.471 | 0.84 | 0.502 | 1.27 | 1.25 | 2.11 |
| IRDENYGEGSS [ACO2_Y665_G661R] | 0.936 | 0.422 | 0.481 | 0.925 | 0.917 | 0.437 | 0.364 | 0.46 | 0.733 | 0.559 | 0.421 | 0.639 | 0.588 | 0.532 | 0.685 | 1.01 |
| ISITPYPAILH [IFT80_Y588] | 1.24 | 0.484 | 0.414 | 0.465 | 1.2 | 0.433 | 0.578 | 0.36 | 1.2 | 0.676 | 0.409 | 0.865 | 0.37 | 0.385 | 0.616 | 0.547 |
| LITTLYIDFLG [KCNQ1_Y267_G269D] | 1.96 | 1.06 | 1.22 | 0.818 | 1.42 | 1.09 | 1.15 | 0.704 | 1.39 | 1.19 | 1.41 | 1.07 | 0.749 | 0.698 | 1.13 | 0.96 |
| GHNDVYISEHV [GRIN2A_Y1423] | 0.618 | 0.447 | 0.395 | 0.438 | 0.552 | 0.393 | 0.331 | 0.332 | 0.407 | 0.478 | 0.416 | 0.33 | 0.317 | 0.456 | 1.1 | 0.535 |
